Results from patent US20230381277A1, “HIGH AFFINITY IL-2 RECEPTOR AGONISTS AND IMMUNOSUPPRESSANTS TO ENHANCE IMMUNE TOLERANCE” (Selecta Biosciences, Inc., priority 2022, published 2023).

Tested on: Ovalbumin-specific OTII T cells
Experiment: Example 5: adoptive transfer of ovalbumin-specific OTII T cells, antigen-specific Treg induction
Format: in vivo
Conditions: mice with adoptively transferred OTII T cells; starting level ~3%
Method: However, expansion of antigen-specific Treg can be more desirable than expansion of total Treg. The ability of ImmTOR plus antigen combined with IL-2 mutein to induce and/or expand antigen-specific Treg was evaluated. Ovalbumin-specific OTII T cells were adoptively transferred into mice prior to treatment with ovalbumin and ImmTOR and/or IL-2 mutein.

B1: ovalbumin (protein, UniProt P01012 2-386, looked up)
Ovalbumin: GSIGAASMEFCFDVFKELKVHHANENIFYCPIAIMSALAMVYLGAKDSTRTQINKVVRFDKLPGFGDSIEAQCGTSVNVHSSLRDILNQITKPNDVYSFSLASRLYAEERYPILPEYLQCVKELYRGGLEPINFQTAADQARELINSWVESQTNGIIRNVLQPSSVDSQTAMVLVNAIVFKGLWEKAFKDEDTQAMPFRVTEQESKPVQMMYQIGLFRVASMASEKMKILELPFASGTMSMLVLLPDEVSGLEQLESIINFEKLTEWTSSNVMEERKIKVYLPRMKMEEKYNLTSVLMAMGITDVFSSSANLSGISSAESLKISQAVHAAHAEINEAGREVVGSAEAGVDAASVSEEFRADHPFLFCIKHIATNAVLFFGRCVSP
- percentage of Foxp3+ DTII cells: ~6%
